Biological target: Tyrosine hydroxylase, wild-type (hTH1) (human) (UniProt P07101)
Assay: BLI; biotinylated TH or TH variant immobilised on streptavidin sensors; DNAJC12 or variant 0.01-4 μM in solution; PBS, 0.02% Tween-20, 0.5 mg/mL BSA, 25 °C; responses fitted to a one-site hyperbola

DNAJC12(1-107), sequence (Q9UKB3 1-107): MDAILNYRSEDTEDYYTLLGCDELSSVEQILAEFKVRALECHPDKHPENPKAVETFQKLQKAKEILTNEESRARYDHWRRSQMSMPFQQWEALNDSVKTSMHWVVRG

Kd: 3.99 µM
Substance: DNAJC12(1-107) (from UniProt Q9UKB3-1 1-107) (domain or fragment)
